This passage reports hAPJ Ca2+ Flux EC50 results from patent US20160166634A1 (Novartis, published 2016).

The assay has as its target human APJ receptor (hAPJ) (human) (UniProt P35414). The assay is described as follows: cell-based or functional assay.

human APJ receptor (hAPJ) (human), sequence (P35414 whole entry): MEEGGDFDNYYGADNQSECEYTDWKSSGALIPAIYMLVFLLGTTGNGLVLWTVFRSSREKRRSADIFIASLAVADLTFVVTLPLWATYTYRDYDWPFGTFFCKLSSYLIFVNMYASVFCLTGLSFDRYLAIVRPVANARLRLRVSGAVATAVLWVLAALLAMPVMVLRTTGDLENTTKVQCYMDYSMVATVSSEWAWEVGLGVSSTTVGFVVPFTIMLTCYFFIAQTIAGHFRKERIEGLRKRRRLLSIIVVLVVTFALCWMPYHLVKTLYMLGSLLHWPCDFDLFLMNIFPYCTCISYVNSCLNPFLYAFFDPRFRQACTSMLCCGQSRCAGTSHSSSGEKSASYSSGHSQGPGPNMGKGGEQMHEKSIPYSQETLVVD

Substance “Example 1: Albumin-MPA-O2Oc-O2Oc-O2Oc-O2Oc-Q-R-P-R-L-C*-H-F-G-P-Nle-C*-f-OH (from UniProt P02768 25-609)” showed a hAPJ Ca2+ Flux EC50 of 47.2 nM.
The substance “Example 3: Albumin-MPA-NHCH2CH2CH2-OCH2CH2OCH2CH2O-CH2CH2CH2NH-C(O)CH2CH2C=O-A-R-P-R-L-S-H-K-G-P-Nle-P-F-OH (from UniProt P02768 25-609)” came in with a hAPJ Ca2+ Flux EC50 of 52 nM.
The figure for “Example 2: Albumin-TPA-O2Oc-O2Oc-O2Oc-O2Oc-Q-R-P-R-L-C*-H-F-G-P-Nle-C*-f-OH (from UniProt P02768 25-609)” is 92.4 nM.
